# The supplement of paper PMC10126150
# ± gives the standard deviation of the averaged measurements.
# Test system: ATP
# Assay: switch fluorescence ratio, 500 uM ATP over buffer (Cy3 cluster intensity, sum of 5 cycles each) (fold (ratio)); higher = stronger signal-on switching upon ATP binding; sequences stand for … in TCGTCGGCAGCGTCAGATGTGTATAAGAGACAGTTTTTTTTTTTTTTTTTTTTTTTTT…TC
# Conditions: aptamer strand: ATP DNA aptamer (quencher-CACCTGGGGGAGTATTGCGGAGGAAGG + anchor), 100 nM annealed; ATP concentration: 500 uM
# How it was run: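 Cy3-labelled switching-strand clusters on a modified Illumina MiSeq flow-cell were annealed to 100 nM quencher-labelled ATP aptamer and imaged first in selection buffer, then after 15 min with 500 uM ATP at 22 °C. NaOH stripping and re-annealing separated each of five buffer/ATP cycles, and clusters outside 100-1000 RFU were excluded. The fluorescence ratio sums target-cycle Cy3 intensity over buffer-cycle Cy3 intensity per cluster and averages it per switch-domain sequence.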
# 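Also: ATP exposure 15 min at 22 °C before imaging.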
row,Sequence,switch fluorescence ratio
1,ACCGGTTATA,1.03 ± 0.038
2,CGCCCCGAGA,1.02 ± 0.015
3,CCGTGGTTTA,1 ± 0.01
4,TTTGACGGGG,1.04 ± 0.096
5,TAGCCGATGG,0.994 ± 0.027
6,TTTGGGCGAA,1.002 ± 0.0068
7,TCGTAACACT,1.16 ± 0.0057
8,TGGGGCTTGG,1.01 ± 0.051
9,GCTTATCAGC,0.991 ± 0.013
10,TTCAAAACGT,1.04 ± 0.017
11,GGCCCCTTTT,1.021 ± 0.0053
12,CGGGGCAAGG,0.984 ± 0.057
13,CGGTCAGTTT,1.025 ± 0.0089
14,TGGGAAAACG,1.05 ± 0.078
15,GGTTCATGAT,0.993 ± 0.024
16,GGGTGGTCTG,1.01 ± 0.031
17,GTCCGGGGGC,1.13 ± 0.04
18,TATGTTGCAA,1.01 ± 0.025
19,GGTTTTGATT,0.998 ± 0.0089
20,AAATTGGACG,1.08 ± 0.04
21,GGGTGTTAAC,0.981 ± 0.057
22,TACTTGGGAG,1.027 ± 0.0036
23,TATAATAGTT,0.965 ± 0.037

row,Sequence,switch fluorescence ratio
1,GAGGGGTTGC,1.09 ± 0.047
2,AGGTGGTGTG,0.984 ± 0.015
3,GATGTATATT,1.002 ± 0.004
4,TATCTGGGTG,1.06 ± 0.029
5,AATGTGTGAA,1.01 ± 0.017
6,GCAAATTCCG,1.026 ± 0.0095
7,AAGTAGTCTT,0.995 ± 0.014
8,TTAGTAAGGT,1.01 ± 0.059
9,GGCAACAGCG,1.039 ± 0.003
10,TTGTAGCTTT,1.12 ± 0.089
11,GTAGGTAACG,0.9867 ± 0.0079
12,AATGGAGGGT,1.03 ± 0.055
13,AGGAGTGTCG,1.04 ± 0.039
14,AGGTCATGTA,1.01 ± 0.026
15,GGGCGGGAAC,1.014 ± 0.0088
16,TTCTGATTGC,0.984 ± 0.064
17,AAGTTATGAC,1.03 ± 0.029
18,GTTTTTCAAG,0.975 ± 0.01
19,TTGACGGGCT,1.05 ± 0.043
20,CGTAGATTTT,1 ± 0.046
21,GGTTTAGTTG,0.9744 ± 0.0062
22,CATCTAGGGG,0.999 ± 0.061
23,TGTGATTGGG,0.988 ± 0.017

row,Sequence,switch fluorescence ratio
1,CGGGGGAAAG,1.01 ± 0.041
2,GGGGCTGGGA,0.986 ± 0.027
3,GGCGGCAGGG,1 ± 0.013
4,AACAGACCTT,1.13 ± 0.12
5,TGTTGGAGCG,0.969 ± 0.011
6,ATGAAATCTG,1.06 ± 0.074
7,GGGTGACATT,0.997 ± 0.094
8,CTAATTATGG,1.04 ± 0.014
9,TATGTACTAG,1.049 ± 0.0089
10,ATTAGGGTTA,0.9928 ± 0.0088
11,GACACACAAG,1.14 ± 0.016
12,AGCCTGTTTT,0.9861 ± 0.0011
13,GATGAGGGGG,1.03 ± 0.09
14,TGTGTTGGGG,0.969 ± 0.024
15,CCTTGTAGGG,1.02 ± 0.03
16,GAGATTGGAG,0.9892 ± 0.0044
17,TTTTTTCCGA,1.02 ± 0.046
18,AGGTTGTTCT,0.967 ± 0.035
19,TCTTTTTGGA,1.017 ± 0.0079
20,GCGGTTCAGT,1.0109 ± 0.00081
21,TGCAGTCTAG,1.07 ± 0.15
22,ACCGGGCTGC,1.06 ± 0.024
23,AGAGGATTTT,1 ± 0.015

row,Sequence,switch fluorescence ratio
1,TAATGGTT,0.979 ± 0.011
2,AGTGCATTGG,1 ± 0.024
3,TATGTATTAT,0.994 ± 0.062
4,CTAGTTCTTA,1.05 ± 0.065
5,ACATTTGGGA,0.964 ± 0.026
6,ATTCGGGCCA,1.01 ± 0.037
7,ATTTTAAGTA,0.987 ± 0.031
8,CCGGGCCATC,2.3 ± 0.038
9,CGTTGTCTAG,0.9713 ± 0.005
10,TATGAAACCG,1.02 ± 0.086
11,TAGGGGGTAA,0.997 ± 0.039
12,AAGGGCTTGC,1.01 ± 0.041
13,TCTAAAGGGT,0.9988 ± 0.0021
14,GACTTTTTTC,0.9748 ± 0.0053
15,TTTTCAAATA,1.01 ± 0.061
16,CAGAGGGAGG,1.02 ± 0.033
17,ATGGCGACGA,1.027 ± 0.0095
18,TTTTGGGGTC,1.02 ± 0.023
19,CGGTGGTCGC,0.984 ± 0.019
20,TAGGGCTGTA,0.993 ± 0.049
21,CGATGGTTTT,1.01 ± 0.044
22,AGACCTCTTT,0.988 ± 0.02
23,TTCGTGGGGT,1.03 ± 0.061

row,Sequence,switch fluorescence ratio
1,TTTTTCTTCT,1.31 ± 0.36
2,TTTGGGCACT,0.996 ± 0.024
3,CAGTGGAGCG,0.964 ± 0.058
4,TGGAGGGATG,1.01 ± 0.054
5,TAGACTGGTG,1.01 ± 0.017
6,GACTTATGGG,1.04 ± 0.033
7,AATTATTTTT,0.9867 ± 0.0061
8,CGCCGCGTCA,1 ± 0.038
9,TTTTCATTTT,1.05 ± 0.11
10,ATGTATCGGC,1.01 ± 0.06
11,GGATTTTATC,0.992 ± 0.013
12,TGCAACTTTT,1.01 ± 0.019
13,ATTGAGAGAT,1.03 ± 0.014
14,ACGCGGGGAG,1.01 ± 0.034
15,GGGGACCGGT,1.054 ± 0.0023
16,CGGTACACGT,1.0186 ± 0.00031
17,GGATGTTAGT,1 ± 0.008
18,CCTTATTGTC,0.997 ± 0.024
19,CAAGTTTGTA,0.997 ± 0.021
20,TACATTGACG,1.025 ± 0.0089
21,TCTGTGCCTT,1.06 ± 0.069
22,CAGGGTTCCG,1.17 ± 0.28
23,AGATATAGCG,1.029 ± 0.0076

row,Sequence,switch fluorescence ratio
1,CCTGGGTCGA,1.022 ± 0.0044
2,GGTTCATCGG,0.9912 ± 0.0029
3,TTGGGATTGT,0.989 ± 0.014
4,AATTTTATGG,1.01 ± 0.022
5,TCAAAAAGGA,1.01 ± 0.031
6,ATCAAACGGG,1.02 ± 0.029
7,AGGATTCGGG,1.01 ± 0.021
8,TTAAGCTAAT,1.42 ± 0.5
9,AGTCAACTTG,1.01 ± 0.053
10,TTACATTTTA,1.02 ± 0.015
11,TAAGTTGACT,1.06 ± 0.078
12,CCAAGCCTGT,1.007 ± 0.0098
13,ACTCTGGGGT,1.03 ± 0.015
14,TTTCATCCTG,1.0331 ± 0.00038
15,TTGATGAGTG,1.01 ± 0.033
16,AGGACTGAAG,0.989 ± 0.07
17,ATAAGTGTTA,0.9898 ± 0.0031
18,ATAGCGGAGA,1 ± 0.036
19,TTAGGGGCGA,0.994 ± 0.012
20,CAGTCATTTT,0.984 ± 0.031
21,GATTTTGGAC,1.031 ± 0.0078
22,CGTTAGATGG,1.01 ± 0.011
23,GGAGGATGGG,1 ± 0.014

row,Sequence,switch fluorescence ratio
1,CGCATTGGT,1.31 ± 0.016
2,ATTTATTGAA,0.996 ± 0.027
3,CGGTAATGTT,1 ± 0.027
4,ATGTTTTGAG,0.983 ± 0.043
5,AAGAAGTGTA,1.006 ± 0.0083
6,GAAGTTGCCC,0.994 ± 0.028
7,TTTCCAGCGT,1.03 ± 0.036
8,TAGTGGTGGG,0.9844 ± 0.0089
9,CAGGTCCAGT,0.993 ± 0.02
10,ATACACGGCA,1.11 ± 0.03
11,TAACGGCATC,1.08 ± 0.036
12,GAGTGTGAAA,0.978 ± 0.035
13,GTTGGGTTGG,1 ± 0.033
14,GAGTAACCAG,0.979 ± 0.036
15,GGCGGTATAG,1.02 ± 0.013
16,TGGGTCTCTT,1.01 ± 0.008
17,GCCGCTATTT,1.43 ± 0.18
18,AATCGGTGGG,0.997 ± 0.03
19,TTGTAGGGT,0.986 ± 0.014
